# Results reported in patent EP1257175B1.
# What was measured:
# Assay in all cases: cell-based or functional assay
# [1] = biological target: protease derived from Paecilomyces lilacinus CBS 102449 (Paecilomyces lilacinus CBS 102449)
# [2] = biological target: Sub.Novo, subtilisin from Bacillus amyloliquefaciens (Bacillus amyloliquefaciens) (UniProt P00782)
# [3] = biological target: protease derived from Acremonium chrysogenum ATCC 48272 (Acremonium chrysogenum ATCC 48272)
# [4] = biological target: protease derived from Aspergillus sp. CBS 102448
# [5] = biological target: protease derived from Fusarium oxysporum IFO 4471 (Fusarium oxysporum IFO 4471)
# [6] = biological target: SAVINASE, subtilisin derived from Bacillus clausii (previously Bacillus lentus NCIB 10309) (Bacillus clausii (previously Bacillus lentus NCIB 10309)) (UniProt P29600)
# [7] = biological target: Sub.Novo(Y217L), mutant of subtilisin from Bacillus amyloliquefaciens (Bacillus amyloliquefaciens) (UniProt P00782)
# [8] = biological target: protease derived from Bacillus sp. NCIMB 40484 (Bacillus sp. NCIMB 40484)
# [9] = biological target: protease derived from Bacillus alcalophilus NCIMB 10438 (Bacillus alcalophilus NCIMB 10438)
substance,measurement,setting,value
Streptomyces Subtilisin Inhibitor (SSI) (from UniProt P01006 32-144),Residual activity (%),[1],0.1%
same,Residual activity (%),[2],0.1%
same,Residual activity (%),[3],0.1%
same,Residual activity (%),[4],0.1%
same,Residual activity (%),[5],0.1%
same,Residual activity (%),[6],0%
same,Residual activity (%),[7],0%
same,Residual activity (%),[8],4.3%
same,Residual activity (%),[9],0%
